# Source: publication PMC10049731, “Legumain Functions as a Transient TrkB Sheddase” (International Journal of Molecular Sciences, 2023)
# Assays:
# [1] = biological target: TrkB Ig2 domain (His283-Glu428) (rat); experiment: MST; in solution; TrkB ECD or Ig2 with proBDNF; which partner was labelled is not told; MST buffer 1x PBS pH 7.4, 0.005% Tween 20
# [2] = biological target: T1, TrkB ectodomain (Ser29-Glu428) (rat, UniProt Q63604-1 29-428, several glycosylation forms; labelled with NT-647 RED dye in the MST set-up with labelled TrkB); experiment: as above; conditions: both partners purified
# T1 construct: Secreted by way of the pHLsec vector; also called TrkB ECD; full-length ectodomain; source: HEK293S, transfected (pHLsec), secreted into medium, purified (Ni-NTA); not shown: His6, C-terminal, kept
# T1 sequence (Q63604 29-428): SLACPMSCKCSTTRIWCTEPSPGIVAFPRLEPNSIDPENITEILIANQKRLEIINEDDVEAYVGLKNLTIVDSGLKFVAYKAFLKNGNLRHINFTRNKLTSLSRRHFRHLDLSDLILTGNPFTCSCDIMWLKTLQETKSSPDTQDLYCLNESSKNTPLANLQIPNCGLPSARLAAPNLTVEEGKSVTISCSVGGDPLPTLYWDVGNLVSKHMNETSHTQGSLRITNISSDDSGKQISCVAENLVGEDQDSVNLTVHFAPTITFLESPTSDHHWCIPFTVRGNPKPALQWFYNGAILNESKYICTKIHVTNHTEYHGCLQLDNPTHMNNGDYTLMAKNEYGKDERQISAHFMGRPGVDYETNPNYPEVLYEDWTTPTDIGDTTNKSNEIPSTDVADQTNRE
# [3] = biological target: T1, TrkB ectodomain (Ser29-Glu428); experiment: MST; in solution; TrkB variant (intact or legumain-processed) labelled with NT-647 RED and kept constant, unlabelled BDNF (20.5 uM) in a 16-step 1:2 dilution series; 1x PBS pH 7.4, 0.005% Tween 20; 10 min at RT; Monolith NT.115; conditions: both partners purified
# [4] = biological target: T2, legumain-processed TrkB ectodomain (rat, UniProt Q63604-1 29-391, glycosylated; labelled with NT-647 RED dye in the MST); experiment: as above; conditions: both partners purified
# T2 construct: TrkB, rat, ectodomain construct Ser29-Glu428 cut by legumain in the membrane linker; dominant cleavage site after Asn391, minor sites after Asp385 and Asn389, so the C-terminus is a mixture; C-terminal limit is that of the dominant cleavage site (Asn391); the His6 tag is lost with the cut fragment; also called legumain-processed TrkB ECD; processed TrkB ECD; source: HEK293S, purified (Ni-NTA), …
# T2 sequence (Q63604 29-391): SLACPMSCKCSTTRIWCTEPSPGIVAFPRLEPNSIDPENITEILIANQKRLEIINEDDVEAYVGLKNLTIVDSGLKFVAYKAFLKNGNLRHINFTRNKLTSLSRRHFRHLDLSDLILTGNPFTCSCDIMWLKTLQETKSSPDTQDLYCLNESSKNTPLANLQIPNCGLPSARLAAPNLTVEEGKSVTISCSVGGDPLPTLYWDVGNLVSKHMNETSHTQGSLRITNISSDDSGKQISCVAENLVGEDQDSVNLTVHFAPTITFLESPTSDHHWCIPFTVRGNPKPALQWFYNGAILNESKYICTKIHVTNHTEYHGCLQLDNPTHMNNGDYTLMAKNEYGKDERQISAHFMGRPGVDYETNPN
# [5] = biological target: TrkB Ig2 domain (His283-Glu428) (rat); experiment: as above
# [6] = biological target: legumain-processed TrkB Ig2 domain (rat); experiment: as above
# [7] = biological target: the molecule itself; experiment: dynamic light scattering; BDNF alone; Figure S4C; conditions not shown
Kd [1] [µM],Kd [2] [µM],Kd [3] [µM],Kd [4] [µM],Kd [5] [µM],Kd [6] [µM],Binder,stoichiometry N [7]
0.441,0.306,–,–,–,–,"proBDNF (ligand, rat, UniProt P23363 19-249, looked up, proBDNF, the pro-form of brain-derived neurotrophic factor; also called pro-form of BDNF; source: E. coli Rosetta 2 (DE3), inclusion bodies, folded in vitro, purified (SP-sepharose)) APMKEANVHGQGNLAYPAVRTHGTLESVNGPRAGSRGLTTTSLADTFEHVIEELLDEDQKVRPNEENHKDADLYTSRVMLSSQVPLEPPLLFLLEEYKNYLDAANMSMRVRRHSDPARRGELSVCDSISEWVTAADKKTAVDMSGGTVTVLEKVPVSKGQLKQYFYETKCNPMGYTKEGCRGIDKRHWNSQCRTTQSYVRALTMDSKKRIGWRFIRIDTSCVCTLTIKRGR",–
–,–,0.106 ± 0.044,0.188 ± 0.082,0.067,0.3,"Brain-derived neurotrophic factor (BDNF), mature (His131-Arg249) (ligand, rat, UniProt P23363 131-249, looked up, disulfides Cys143-Cys210, Cys188-Cys239, Cys199-Cys241; labelled with NT-647 RED dye in the MST set-up with labelled BDNF, mature BDNF, cut from proBDNF by furin, His131-Arg249; The species rests on the legend 'Preparation of rat TrkB and proBDNF'; the printed residue numbers fit a 249-residue precursor; also called mature BDNF) HSDPARRGELSVCDSISEWVTAADKKTAVDMSGGTVTVLEKVPVSKGQLKQYFYETKCNPMGYTKEGCRGIDKRHWNSQCRTTQSYVRALTMDSKKRIGWRFIRIDTSCVCTLTIKRGR",2
